From PMC10414051, “FOXP1-GINS1 axis promotes DLBCL proliferation and directs doxorubicin resistance”

Molecular target: T1, FOXP1 (recombinant, pET28a) (UniProt Q9H334 1-677)
T1 sequence: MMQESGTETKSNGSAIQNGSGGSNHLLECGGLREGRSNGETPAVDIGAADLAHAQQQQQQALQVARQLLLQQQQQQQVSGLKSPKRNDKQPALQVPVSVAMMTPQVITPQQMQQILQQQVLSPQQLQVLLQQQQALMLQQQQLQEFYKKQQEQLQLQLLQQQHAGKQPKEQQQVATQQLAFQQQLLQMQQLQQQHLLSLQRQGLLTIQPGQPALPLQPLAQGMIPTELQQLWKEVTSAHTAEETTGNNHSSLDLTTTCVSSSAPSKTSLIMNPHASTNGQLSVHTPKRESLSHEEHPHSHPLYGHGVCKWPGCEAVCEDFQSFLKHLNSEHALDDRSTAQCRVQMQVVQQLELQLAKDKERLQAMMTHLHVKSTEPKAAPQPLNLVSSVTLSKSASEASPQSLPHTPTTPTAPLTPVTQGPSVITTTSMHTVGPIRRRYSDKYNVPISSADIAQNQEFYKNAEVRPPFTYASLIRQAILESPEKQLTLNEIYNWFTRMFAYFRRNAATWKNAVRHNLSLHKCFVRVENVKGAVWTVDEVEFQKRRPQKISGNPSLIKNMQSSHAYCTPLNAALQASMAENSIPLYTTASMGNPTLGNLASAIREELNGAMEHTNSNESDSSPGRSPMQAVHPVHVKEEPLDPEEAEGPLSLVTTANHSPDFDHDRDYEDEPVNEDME
Test: EMSA; Nondenaturing PAGE EMSA, HRP-streptavidin detection; buffer, salt, pH and temperature not stated
Settings: protein: recombinant; tags: His tag (implied by pET28a and Ni-NTA); chain copies: 2; blunt

B1: Probe A (GINS1 promoter FOXP1 site A) (dsDNA)
DNA 1: TCAAAAAGGCAATGTTTGCTGGGTG
DNA 2: CACCCAGCAAACATTGCCTTTTTGA
binding result: binds

B2: Probe B (GINS1 promoter FOXP1 site B) (dsDNA)
DNA 1: AGCTCAAGAGTTGTCGACCAGACTG
DNA 2: CAGTCTGGTCGACAACTCTTGAGCT
binding result: binds
